Data reported in paper PMC8954249, “The C-Terminal Domain of Liquorilactobacillus nagelii Dextransucrase Mediates the Production of Larger Dextrans Compared to Liquorilactobacillus hordei” (Gels, 2022).

What was measured:
[1] = target: T1, dsr3510ΔC-term (Liquorilactobacillus nagelii, UniProt A0A3Q8CN51); assay: Michaelis-Menten fit, released fructose (D-fructose/D-glucose assay kit); assay type: biochemical; details: pH 5.0, 30 °C, 0.05 M sodium acetate, 1 mM CaCl2; crude enzyme extract, 2500 µg/mL protein
T1 construct: gene BSQ50_03510
Description: Michaelis-Menten fit, released fructose (D-fructose/D-glucose assay kit) on dsr3510ΔC-term

[2] = substrate: OC[C@H]1O[C@@](CO)(O[C@H]2O[C@H](CO)[C@@H](O)[C@H](O)[C@H]2O)[C@@H](O)[C@@H]1O; assay: as above; assay type: biochemical, Liquorilactobacillus nagelii; details: pH 5.0, 30 °C, 0.05 M sodium acetate, 1 mM CaCl2, crude enzyme extract, 500 µg/mL protein
Description: Michaelis-Menten fit, released fructose (D-fructose/D-glucose assay kit) on dsr3510 (full-length L. nagelii TMW 1.1827 dextransucrase)

Row | Km [1] | Molecule | Km [2] | Vmax [2]
1 | 12.6 ± 0.73 mM | OC[C@H]1O[C@@](CO)(O[C@H]2O[C@H](CO)[C@@H](O)[C@H](O)[C@H]2O)[C@@H](O)[C@@H]1O [sucrose] |  | 
2 |  | dsr3510 (full-length L. nagelii TMW 1.1827 dextransucrase) (Liquorilactobacillus nagelii) (protein) NVKISADSTPQNVVEQSSSSNDSSSNSSSSSKTSSSSKVNTDQVNEDTSSSITKENNISAMPKKQTQLTTATTAADKVTQTTDTSATTTAATNQQKNNQVESSSQSSSEQASSTISNNTTVSNTDSQQSSSQVANVTGGKYVDSNETWSYVDSQGNKIKGLNKVDGNLQYFDETSGAQIKGEYEKVGETTYYFDKNSGNAIPYTLTSDGKTTAYQADGQPAGAGFFTNQDGEIYYFDADGSYKTGLQTLNGTTYYFDSNGYLSKDTVENVDGKTYYSQADTGKTIQLTSQNLPTQTSTAKEVASFAAHNVAYSYDTKSFENINGYLTADSWYRPTYILNDGQLWIKSTSTDFRPLLMAWWPSKSIEADYLNYMIEQGIISSTRNFSANDDSLVLNSAAQNVQIALEKNLTMTGSVNWLRQIMQSFVKKEAIWNKTSEDPSSDGLSSLQGGFLTYQNSKLTPNANSDYRILGYVPSYIKNSNDKGSEFLLANDIDNSNPVVQAEELNWLYYLMNFGSITADDSSANFDGIRVDAVDNVDADLLKIAADYFKDAYQVNQNDQNADSHLSILEDWSNNDPQYVYDQGANQLTMDDYFVGQMNYSLENAPGSNSKMERFVQWYLINRANDSTEDTAIPNYTFVRAHDSNSQDQIQKAIQAATGGEYGVFTWEQLQQGLTLYYADQASTEKKYNRYNIPSAYAMLLTNKDTVPRVYYGDLYLEGGQYMANKTIYYDTITNLLASRVKYVAGGQTMSVDGNDVLTSVRFGKGAMTASDQGTSETRTEGVGVIVSNNTSLKLKDGDQVVLHMGVAHRNQAYRAAVLTTKDGIINYTSDDNAPIAYTDNNGDLVFTNQNLLINGVEEANTSIQGYANPDVTGYLAVWVPVGAATTQDARTAATTDSSTDGKTLHSNAALDSNVIYEGFSNFISYPDSHDDNTNVVIAKNTDLFKALGITSFELAPQYRTSGDKTFLDSTIDNGYAFTDRYDLGYGTPTKYGTVDDLRNVIKALHAAGIQAIADWVPDQIYNLPTEELVTVNRTDERGNQVASSKIHDLLYVANTIGGGDYQKKYGGAFLEVLETEYPDLFKEIQASTGKTIDPSQKITSWSAEYFNGTNILGRGSDYVLRSDDNQQYFYVGDDSSEVQKFLPASLVAENDRQKYSLGDQSANNYFVQENLNGKWYLIDPLNNQKQTGFQYIPDQIKTVYYNAQGEMQYGQQFLGGHWYLFDSRTGAMETGLQYIGNQHKTVYYNVQGQMQYGQQNVNGHWYLFDSKTGAMKTGWQYISNQHKTVYYNTQGQMQYGQQNVNGHWYLFDSKTGAMKTGWQYISDQHKTVYYNGQGQMQYGQQNVNGHWYLFDSKTGAMKTGWQYISNQHKTVYYNSQGQMVYGKQVIAGKTYYFDTKTGRKL | 10.97 ± 1.56 mM | 200 µM/min
